{"source": "patent US8632989B1", "about": "“Mutant insulin degrading enzyme and methods of use” (University of Kentucky Research Foundation, priority 2011, dated 2014)", "proteins": {"B1": {"name": "rIDE-Y609F (protein)", "chain": "MNNPAIQRIEDHIVKSPEDKREYRGLELANGIKVLLISDPTTDKSSAALDVHIGSLSDPPNIPGLSHFCEHMLFLGTKKYPKENEYSQFLSEHAGSSNAFTSGEHTNYYFDVSHEHLEGALDRFAQFFLCPLFDASCKDREVNAVDSEHEKNVMNDAWRLFQLEKATGNPKHPFSKFGTGNKYTLETRPNQEGIDVREELLKFHSTYYSSNLMAICVLGRESLDDLTNLVVKLFSEVENKNVPLPEFPEHPFQEEHLKQLYKIVPIKDIRNLYVTFPIPDLQQYYKSNPGHYLGHLIGHEGPGSLLSELKSKGWVNTLVGGQKEGARGFMFFIINVDLTEEGLLHVEDIILHMFQYIQKLRAEGPQEWVFQECKDLNAVAFRFKDKERPRGYTSKIAGKLHYYPLNGVLTAEYLLEEFRPDLIDMVLDKLRPENVRVAIVSKSFEGKTDRTEQWYGTQYKQEAIPEDVIQKWQNADLNGKFKLPTKNEFIPTNFEILALEKDATPYPALIKDTAMSKLWFKQDDKFFLPKACLNFEFFSPFAYVDPLHCNMAYLYLELLKDSLNEYAFAAELAGLSYDLQNTIYGMYLSVKGYNDKQPILLKKITEKMATFEIDKKRFEIIKEAYMRSLNNFRAEQPHQHAMYYLRLLMTEVAWTKDELKEALDDVTLPRLKAFIPQLLSRLHIEALLHGNITKQAALGVMQMVEDTLIEHAHTKPLLPSQLVRYREVQLPDRGWFVYQRRNEVHNNCGIEIYYQTDMQSTSENMFLELFCQIISEPCFNTLRTKEQLGYIVFSGPRRANGIQGLRFIIQSEKPPHYLESRVEAFLITMEKAIEDMTEEAFQKHIQALAIRRLDKPKKLSAECAKYWGEIISQQYNYDRDNIEVAYLKTLSKDDIIKFYKEMLAVDAPRRHKVSVHVLAREMDSCPVVGEFPSQNDINLSEAPPLPQPEVIHNMTEFKRGLPLFPLVKPHINFMAAKL"}, "B2": {"name": "rIDE-V360S (protein)", "chain": "B1 chain with V319S, F568Y"}, "B3": {"name": "rIDE-I374S (protein)", "chain": "B1 chain with I333S, F568Y"}}, "note": "Changes are numbered by the printed parent chain. Names may count otherwise.", "data": [{"biological_target": "bradykinin, P01042", "sequence (P01042 whole entry, looked up)": "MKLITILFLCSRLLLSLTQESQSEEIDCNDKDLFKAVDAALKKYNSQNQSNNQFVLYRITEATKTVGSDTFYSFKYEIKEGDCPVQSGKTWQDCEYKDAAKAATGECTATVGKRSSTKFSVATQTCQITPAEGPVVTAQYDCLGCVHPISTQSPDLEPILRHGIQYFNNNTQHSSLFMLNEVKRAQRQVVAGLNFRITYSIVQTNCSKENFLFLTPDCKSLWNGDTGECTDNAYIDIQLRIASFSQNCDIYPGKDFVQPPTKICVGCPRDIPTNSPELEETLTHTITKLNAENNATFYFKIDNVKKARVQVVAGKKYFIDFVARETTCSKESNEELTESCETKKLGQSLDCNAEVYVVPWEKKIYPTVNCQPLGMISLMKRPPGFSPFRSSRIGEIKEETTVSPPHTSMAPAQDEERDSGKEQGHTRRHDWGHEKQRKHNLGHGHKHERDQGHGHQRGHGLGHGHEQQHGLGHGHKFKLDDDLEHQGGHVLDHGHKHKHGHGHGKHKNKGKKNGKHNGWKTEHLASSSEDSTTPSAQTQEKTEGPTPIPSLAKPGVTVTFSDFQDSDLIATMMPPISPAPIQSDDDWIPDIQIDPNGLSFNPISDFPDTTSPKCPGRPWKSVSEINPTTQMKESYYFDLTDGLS", "values": [{"protein": "B1", "Heterotropic activation of Abz-GGFLRKHGQ-EDDnp hydrolysis": "is also lost in all three mutants"}, {"protein": "B2", "Heterotropic activation of Abz-GGFLRKHGQ-EDDnp hydrolysis": "is also lost in all three mutants"}, {"protein": "B3", "Heterotropic activation of Abz-GGFLRKHGQ-EDDnp hydrolysis": "is also lost in all three mutants"}]}, {"biological_target": "T1, Abz-GGFLRKHGQ-EDDnp", "T1 chain": "GGFLRKHGQ", "units": {"Km": "µM", "Vmax": "nmol/min/mg"}, "values": [{"protein": "B1", "Hill coefficient": 1.04, "Km": 6.86, "Vmax": 2.6}, {"protein": "B2", "Hill coefficient": 1.07, "Km": 8.61, "Vmax": 2.01}, {"protein": "B3", "Hill coefficient": 1.12, "Km": 8.5, "Vmax": 3.45}]}]}
